Measured values as given in publication PMC3942068, “Pharmacological characteristics and efficacy of a novel anti-angiogenic antibody FD006 in corneal neovascularization” (BMC Biotechnology, 2014).

What was measured:
[1] = target: T1, Vascular endothelial growth factor (VEGF) (Homo sapiens (assumed), UniProt P15692-4); assay: BLI; Octet RED; anti-human IgG biosensor pre-saturated with bevacizumab or FD006 (10 ug/ml); VEGF at 10, 3 and 1 ug/ml in solution; 30°C, PBS; association 5 min, dissociation 10 min; non-linear global fit; details: both partners purified
T1 construct: vascular endothelial growth factor A; also called VEGFA; VEGF-A

[2] = target: T1, Vascular endothelial growth factor …; assay: cell-based or functional assay

T1 sequence (P15692 whole entry): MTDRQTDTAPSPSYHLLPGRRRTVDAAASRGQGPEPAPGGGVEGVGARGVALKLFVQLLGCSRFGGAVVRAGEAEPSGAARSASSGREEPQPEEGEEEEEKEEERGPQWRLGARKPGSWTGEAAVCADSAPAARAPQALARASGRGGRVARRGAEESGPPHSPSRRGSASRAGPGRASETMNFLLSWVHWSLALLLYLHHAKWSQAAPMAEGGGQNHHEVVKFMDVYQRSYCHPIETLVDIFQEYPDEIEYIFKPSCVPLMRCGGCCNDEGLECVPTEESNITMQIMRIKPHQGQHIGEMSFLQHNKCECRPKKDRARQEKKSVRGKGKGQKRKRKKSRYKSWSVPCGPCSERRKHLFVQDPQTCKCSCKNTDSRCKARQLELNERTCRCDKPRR

Kd [1]: 0.311 nM
koff [1]: 4.59e-05 s⁻¹
kon [1]: 148000 M⁻¹ s⁻¹
IC50 of inhibition of VEGF-induced proliferation of HUVEC (antibody pre-incubated with 10 ng/ml VEGF, 72 h, CCK8) [2]: ~0.031 µg/mL
B1: FD006 (antibody, V domains shown)
VH: EVQLVQSGGGLVKPGGSLRLSCAASGFTLNASWIHWVRQAPGKGLEWVGAIYPYSGYSNYADSVKGRFTISADTSKNTLYLQMNSLRAEDTAVYYCARWGHSTSPYSAMDYWGQGTLVTVSS
VL: DIVMTQSPSSLSVSLGERVTITCRASQVLSRSLAWYQQKPGKAPKLLIYAASNVASGVPSRFSGSGSGTDFTLTISSLQPEDFATYYCQQSNTSPVTFGQGTKVEIK
notes: VH of FD006; heavy chain constant region of the full IgG; VL of FD006; light chain constant region of the full IgG; also called novel anti-VEGFA IgG; anti-VEGF monoclonal antibody FD006; source: recombinant vector transfected into mammalian cells, purified; prepared in our lab
